Data taken from patent US20100092489A1 (Genmab, published 2010).

B1: antibody -024 (antibody, human IgG1, V domains shown)
VH: EVQLVQSGAEVKKPGESLKISCKGSGYSFSNYWIGWVRQMPGKGLEWMGIIYPHDSDARYSPSFQGQVTFSADKSISTAYLQWSSLKASDTAMYYCARHVGWGSRYWYFDLWGRGTLVTVSS
VL: EIVLTQSPATLSLSPGERATLSCRASQSVSSYLAWYQQKPGQAPGLLIYDASNRASGIPARFSGSGSGTDFTLTISSLEPEDFAVYYCQQRSNWPLTFGGGTKVEIK
notes: Human monoclonal IgG1 antibody; Recombinant form made with human IgG1 heavy chain constant region (pConG1f0.4) and kappa light chain constant region (pConKappa0.4)
B2: antibody -003 (antibody, human IgG1, V domains shown)
VH: not shown
VL: DIQMTQSPSSLSASVGDRVTITCRASQGISSWLAWYQQKPEKAPKSLIYAASSLQSGVPSRFSGSGSGTDFTLTISSLQPEDFATYYCQQYNSYPRTFGQGTKVEIK
notes: Human monoclonal IgG1 antibody; Recombinant form made with human IgG1 heavy chain constant region (pConG1f0.4) and kappa light chain constant region (pConKappa0.4); FITC-labelled in some assays; also called HuMab -003; -003-2F5

Columns and labels:
[1] = biological target: T1, human CD38 expressed on cells (CHO-CD38, Daudi-luc, fresh multiple myeloma tumor cells) (human, UniProt P28907 1-300); experiment: flow cytometry on Daudi-luc cells, rabbit anti-human IgG-FITC
T1 construct: the cell that carries it is named under assay in each row; also called CD38-CHO; cellular expressed CD38
Description: (§1) After harvesting and counting, Daudi-luc cells, CHO cells transfected with CD38 and control CHO cells were resuspended in PBS (1×10⁶ cells/ml). Then, cells were put in 96-well V-bottom plates (100 μl/well) and washed twice in PBS-BSA (PBS supplemented with 0.1% BSA and 0.02% Na-azide). Thereafter, 50 μl antibody solution in PBS-BSA was added to the cells (4° C., 30 min). After washing three times in PBS-BSA, 50 μl (1:400 dilution) of rabbit anti-human IgG-FITC in PBS-BSA was added (4° C. in the dark, 30 min). Cells were washed three times and specific binding of CD38-antibodies to CHO-CD38 and Daudi-luc cells was detected by flow cytometry.

[2] = biological target: T1, human CD38 expressed on cells …; experiment: flow cytometry on fresh MM tumor cells, FITC-labeled antibody
[3] = biological target: T1, human CD38 expressed on cells …; experiment: cell-based or functional assay
[4] = biological target: T1, human CD38 expressed on cells …; experiment: cell-based or functional assay; remark: listed apart in the source
[5] = biological target: T1, human CD38 expressed on cells …; experiment: flow cytometry on CHO-CD38 cells, rabbit anti-human IgG-FITC
Description: as §1

[6] = biological target: T1, human CD38 expressed on cells …; experiment: cell-based or functional assay; remark: listed apart in the source
[7] = biological target: T1, human CD38 expressed on cells …; experiment: cell-based or functional assay; remark: listed apart in the source
[8] = biological target: T2, HA-CD38 (HA-tagged extracellular domain of human CD38, wild type) (human, UniProt P28907 43-300); experiment: SPR, Biacore 3000, 25° C., antibody immobilized on CM-5 chip, HA-tagged CD38 flowed over; mean of 3 experiments ± SD
T2 construct: The signal peptide SPHMM of the construct is not part of the secreted protein; also called HA-tagged CD38; wt human CD38; not shown: N-terminal HA-tag introduced by PCR primer cd38forha

Binder	EC50 [1] [µg/mL]	EC50 [2] [µg/mL]	EC50 Daudi-luc, ADCC (51Cr release) [3] [µg/mL]	EC50 MM cells, ADCC (51Cr release) [3] [µg/mL]	EC50 CD38-CHO, CDC [4] [µg/mL]	EC50 Daudi-luc, CDC [4] [µg/mL]	EC50 [5] [µg/mL]	EC50, CDC of CHO-CD38 cells (n = 2) [6] [µg/mL]	Log EC50, ADCC of Daudi target cells (n=5) [7]	Ka [8] [M⁻¹]	Kd [8] [nM]
B1	0.05	0.02	0.0097	0.056	0.24	> 90	0.08	–	–	–	–
B2	0.26	0.56	0.009	0.027	3.14	> 90	0.54	4.5	1.17	1.14e+09	0.885
